This assay concerns the target CV3–25 IgG. Nature of the assay: SPR. In general terms: In SPR one partner is held on a chip, and binding of the other changes the refractive index at the surface.

Usually koff stands for the rate constant with which the complex falls apart. Lower therefore signals slow dissociation.

Chain of CV3–25 IgG (VH, as listed by the source, chain 1 of 2): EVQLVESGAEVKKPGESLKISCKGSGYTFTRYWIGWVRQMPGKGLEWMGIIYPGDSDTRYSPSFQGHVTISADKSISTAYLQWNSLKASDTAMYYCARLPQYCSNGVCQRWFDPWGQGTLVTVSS
Chain of CV3–25 IgG (VL, as listed by the source, chain 2 of 2): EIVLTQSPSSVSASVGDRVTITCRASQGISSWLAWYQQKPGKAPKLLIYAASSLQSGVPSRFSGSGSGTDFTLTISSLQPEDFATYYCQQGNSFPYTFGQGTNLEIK

In turn, DKYFKNHTSPD [shorter version of peptide #289 (1153-DKYFKNHTSPD-1163)] registered a dissociation rate constant (koff) of 0.0761 s⁻¹. For the molecule DKYFKNHTSPDVDLG [SARS-CoV-2 S2 peptide #289 (1153-DKYFKNHTSPDVDLG-1167)], the koff stood at 0.0319 s⁻¹.
